Biological target: T1, HA-tagged B1 protein (Homo sapiens (Human), UniProt O43353 1-540)
T1 construct: Expressed in transfected 293 cells for co-immunoprecipitation; also called HA-B1
Assay: co-immunoprecipitation from transfected 293 cells: anti-FLAG IP, anti-HA western blot
Method: Seven hours after transfection cells were washed and 18 hours later cells were lysed in a buffer containing 50 mM HEPES pH 7.5, 250 mM NaCl, 0.2% NP-40, 5 mM EDTA, 1 mM phenylmethylsulfonyl fluoride, 2.0 μg/ml aprotinin and 20 μg/ml leupeptin (lysis buffer). Immunoprecipitation was performed by incubation (2hours, 4° C.) of 1 ml aliquots of lysate with anti-FLAG epitope antibody (5 μg/aliquot) and with protein G-agarose beads (30 μl/aliquot). Immunoprecipitates were washed three times with lysis buffer and once with PBS, fractionated by 10% SDS-PAGE and transferred to a nitrocellulose membrane (Schleicher & Schuell, Dassel, Germany). Western blot analysis was performed with anti-HA epitope monoclonal antibodies applied at a dilution of 1:1000, and the ECL kit (Amersham, Buckinghamshire, England).

T1 sequence (O43353 whole entry L79F): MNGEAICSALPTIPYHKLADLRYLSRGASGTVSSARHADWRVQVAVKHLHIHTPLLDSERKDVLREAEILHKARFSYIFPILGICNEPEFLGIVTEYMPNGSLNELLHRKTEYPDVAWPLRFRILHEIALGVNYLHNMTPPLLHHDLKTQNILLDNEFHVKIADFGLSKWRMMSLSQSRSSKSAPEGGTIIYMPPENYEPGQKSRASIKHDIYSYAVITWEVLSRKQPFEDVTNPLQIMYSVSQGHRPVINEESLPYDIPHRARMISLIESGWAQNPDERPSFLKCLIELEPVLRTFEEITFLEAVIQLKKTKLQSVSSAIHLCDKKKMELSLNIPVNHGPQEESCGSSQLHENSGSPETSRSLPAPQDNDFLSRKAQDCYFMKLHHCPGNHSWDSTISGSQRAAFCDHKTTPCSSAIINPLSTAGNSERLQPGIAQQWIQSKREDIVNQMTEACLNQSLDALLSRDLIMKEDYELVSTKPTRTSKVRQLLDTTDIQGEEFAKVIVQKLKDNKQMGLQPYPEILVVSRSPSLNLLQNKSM

binding result: no binding
B1: Flag-tagged TRAF2 (other, UniProt Q12933 1-501, looked up, not shown: small tags and cut ends)
chain: MAAASVTPPGSLELLQPGFSKTLLGTKLEAKYLCSACRNVLRRPFQAQCGHRYCSFCLASILSSGPQNCAACVHEGIYEEGISILESSSAFPDNAARREVESLPAVCPSDGCTWKGTLKEYESCHEGRCPLMLTECPACKGLVRLGEKERHLEHECPERSLSCRHCRAPCCGADVKAHHEVCPKFPLTCDGCGKKKIPREKFQDHVKTCGKCRVPCRFHAIGCLETVEGEKQQEHEVQWLREHLAMLLSSVLEAKPLLGDQSHAGSELLQRCESLEKKTATFENIVCVLNREVERVAMTAEACSRQHRLDQDKIEALSSKVQQLERSIGLKDLAMADLEQKVLEMEASTYDGVFIWKISDFARKRQEAVAGRIPAIFSPAFYTSRYGYKMCLRIYLNGDGTGRGTHLSLFFVVMKGPNDALLRWPFNQKVTLMLLDQNNREHVIDAFRPDVTSSSFQRPVNDMNIASGCPLFCPVSKMEAKNSYVRDDAIFIKAIVDLTGL
notes: Expressed in transfected 293 cells; also called FL-TRAF2

From patent US20050288225A1 (YEDA RESEARCH AND DEVELOPMENT, published 2005)
